Assay results published in PMC4529235, “The Human Acid-Sensing Ion Channel ASIC1a: Evidence for a Homotetrameric Assembly State at the Cell Surface” (PLoS ONE, 2015).
Residue numbers refer to the chain shown, from its start. Numbers in names are those of the source.

Assays:
[1] = molecular target: the molecule itself; experiment: cross-linking; intracellular BMOE (2 mM, internal perfusion or injection) in Xenopus oocytes; SDS-PAGE under reducing conditions, anti-ASIC1a western blot
[2] = molecular target: the molecule itself; experiment: cross-linking; BMOE (0.5 or 2 mM) at the cell surface of Xenopus oocytes and CHO cells before lysis, cell-surface biotinylated fractions, SDS-PAGE under reducing conditions, anti-ASIC1a western blot; band intensities pooled over oocytes and CHO cells
[3] = molecular target: the molecule itself; experiment: cross-linking; 2 mM BMOE at the cell surface of intact Xenopus oocytes, cell-surface biotinylation, streptavidin beads, SDS-PAGE under reducing conditions, anti-His-tag western blot (ΔCCt background)

B1: wild type human ASIC1a (H8-ASIC1a) (natural protein, UniProt P78348-2 1-528, looked up)
chain: MELKAEEEEVGGVQPVSIQAFASSSTLHGLAHIFSYERLSLKRALWALCFLGSLAVLLCVCTERVQYYFHYHHVTKLDEVAASQLTFPAVTLCNLNEFRFSQVSKNDLYHAGELLALLNNRYEIPDTQMADEKQLEILQDKANFRSFKPKPFNMREFYDRAGHDIRDMLLSCHFRGEVCSAEDFKVVFTRYGKCYTFNSGRDGRPRLKTMKGGTGNGLEIMLDIQQDEYLPVWGETDETSFEAGIKVQIHSQDEPPFIDQLGFGVAPGFQTFVACQEQRLIYLPPPWGTCKAVTMDSDLDFFDSYSITACRIDCETRYLVENCNCRMVHMPGDAPYCTPEQYKECADPALDFLVEKDQEYCVCEMPCNLTRYGKELSMVKIPSKASAKYLAKKFNKSEQYIGENILVLDIFFEVLNYETIEQKKAYEIAGLLGDIGGQMGLFIGASILTVLELFDYAYEVIKHKLCRRGKCQKEAKRSSADKGVALSLDDVKRHNPCESLRGHPAGMTYAANILPHHPARGTFEDFTC
notes: ends with the terminal Cys (C528); Same construct expressed in two hosts; the printed band intensities pool oocytes and CHO cells; also called ASIC1a wt; hASIC1a; source: Xenopus laevis oocytes, cRNA injected; CHO-K1 cells, transfected; not shown: His8, N-terminal, kept
- stoichiometry N [1]: 4

B2: ASIC1a G433C (with intact C-terminal cysteines) (natural protein, human, UniProt P78348-2 1-528, looked up)
chain: B1 chain with G433C
notes: human ASIC1a with G433C, C-terminal cysteines intact; The methods describe G433C only on the ΔCCt template; the results say that this G433C has intact C-terminal cysteines; source: Xenopus laevis oocytes, cRNA injected; CHO-K1 cells, transfected; not shown: His8, N-terminal, kept
- stoichiometry N [2]: 4

B3: ASIC1a-ΔCCt (H8-hASIC1a-C466A/C471A/C497A/C528Stop) (natural protein, human, UniProt P78348-2 1-527, looked up)
chain: MELKAEEEEVGGVQPVSIQAFASSSTLHGLAHIFSYERLSLKRALWALCFLGSLAVLLCVCTERVQYYFHYHHVTKLDEVAASQLTFPAVTLCNLNEFRFSQVSKNDLYHAGELLALLNNRYEIPDTQMADEKQLEILQDKANFRSFKPKPFNMREFYDRAGHDIRDMLLSCHFRGEVCSAEDFKVVFTRYGKCYTFNSGRDGRPRLKTMKGGTGNGLEIMLDIQQDEYLPVWGETDETSFEAGIKVQIHSQDEPPFIDQLGFGVAPGFQTFVACQEQRLIYLPPPWGTCKAVTMDSDLDFFDSYSITACRIDCETRYLVENCNCRMVHMPGDAPYCTPEQYKECADPALDFLVEKDQEYCVCEMPCNLTRYGKELSMVKIPSKASAKYLAKKFNKSEQYIGENILVLDIFFEVLNYETIEQKKAYEIAGLLGDIGGQMGLFIGASILTVLELFDYAYEVIKHKLARRGKAQKEAKRSSADKGVALSLDDVKRHNPAESLRGHPAGMTYAANILPHHPARGTFEDFT
notes: human ASIC1a lacking the cysteines of the C-terminus; C528Stop removes the last residue; also called Ctrl; source: Xenopus laevis oocytes, cRNA injected; not shown: His8, N-terminal, kept
- stoichiometry N [3]: 2

B4: Y426C-ΔCCt (natural protein, human, UniProt P78348 1-527, looked up)
chain: B3 chain with Y426C
notes: human ASIC1a, ΔCCt background (C528Stop removes the last residue) with Y426C; also called Y426C-CCt; source: Xenopus laevis oocytes, cRNA injected; not shown: His8, N-terminal, kept
- stoichiometry N [3]: 4

B5: G430C-ΔCCt (natural protein, human, UniProt P78348 1-527, looked up)
chain: B3 chain with G430C
notes: human ASIC1a, ΔCCt background (C528Stop removes the last residue) with G430C; source: Xenopus laevis oocytes, cRNA injected; not shown: His8, N-terminal, kept
- stoichiometry N [3]: 4

B6: V74C-ΔCCt (natural protein, human, UniProt P78348 1-527, looked up)
chain: B3 chain with V74C
notes: human ASIC1a, ΔCCt background (C528Stop removes the last residue) with V74C; source: Xenopus laevis oocytes, cRNA injected; not shown: His8, N-terminal, kept
- stoichiometry N [3]: 4

B7: G433C-ΔCCt (natural protein, human, UniProt P78348 1-527, looked up)
chain: B3 chain with G433C
notes: human ASIC1a, ΔCCt background (C528Stop removes the last residue) with G433C; source: Xenopus laevis oocytes, cRNA injected; not shown: His8, N-terminal, kept
- stoichiometry N [3]: 4
